Test: yeast display, Sf9 membrane polyspecificity reagent, FACS + sequencing; frameworks hold sequencing errors
Procedure, shortened: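 Using colony PCR, genes from sorted yeast display clones were amplified, then sequenced on MiSeq at 2 × 250 and filtered by CDR length. The clones had been stained with 10% biotinylated, detergent-solubilized Sf9 membrane reagent for 1 hour at 4 °C and sorted by FACS into low and high (top ~1%) gates on anti-HA and streptavidin fluorescence. Polyreactivity labels come from the gate of origin.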

Row | Sequence | polyreactivity (PSR sort gate)
1 | QVQLVESGGGLVQSGGSLRLSCAASGIIFSDYAMGWYRQAPGKERELVATITRSVRTSYADSVKGRFTISRDNAKNTVYLQMNSLKPEDTAVYYCNADVVGAVIAYDYWGQGTQVTVSS | low polyreactivity
2 | QVQLVESGGGLVQSGGSLRLSCAASGITFYVYTMGWYRQAPGKERELVAAINGSGGSTNYADSVKGRFTISRDNAKNTVHLQMNSLKPEDTAVYYCAADWSLRLYDYWGQGTQVTVSS | low polyreactivity
3 | QVQLVESGGGLVQSGGSLRLSCAASGITSHPYDMGWSRQAPGKERELVAVITSGGSTSYADSVKGRFTISRDNAKNTVYLQMNRLKPEDTAVYYCNADWFTPAQPWYRYFIRYDYWGQGTEVTVSS | low polyreactivity
4 | QVQLVESGGGLVQSGGSLRLSCAASGRIFKLYAMGWYRQAPGKERELVAAITRTGTSTYYADSVKGRFTISRDNAKNTVYLQMNSLKPEDTAVYYCNKTTLLTVEYDYWGQGTQVTVSS | low polyreactivity
5 | QVQLVESGGGLVQSGGSLRLSCAASGRIFYYNAMGWYRQAPGKERELVAAITSSSGSSTYYADSVKGRFTISRDNAKNTVYLQMNSLKPEDTAVYYCNAASLDRFFGYRYNDDDYWGQGTQVTVSS | low polyreactivity
6 | QVQLVESGGGLVQSGGSLRLSCAASGRTFLTYVMGWYRPAPGKERELVAAITRGGRTNYAHSEKGRFTISRDNAKNTVDLQMTSLKPEDTAVYYCARDDTPRYDYWGQGTQVTVSS | low polyreactivity
7 | QVQLVESGGGLVQSGGSLRLSCAASGSTFDPNTMGSYRQAPGKERELVATITSVDSTNYADSVKGRFTISRDNAMNTVYLQMNSLIPEDTAVYYCNAAYGGVFFYAYDYWGQGTQVTVSS | low polyreactivity
8 | QVQLVESGGGLVQSGGSLRLSCAASGSTFKFYAMGWYRQAPGKEREFVAAITSSGDSTYYADSVKGRFTISRDNAKNTVYLQMNSLKPEDTAVYYCAARLRWRYSYDYWGQGTQVTVSS | high polyreactivity
9 | QVQLVESGGGLVQSGGSLRLSCAASGSTFQSNAMGWYRQAPGKERELVATITQSGATTYYADSVKGRFTISRDNAKNTVYLQMNSLKPEDSAVYYCNVDTYQKRWFWLDLDGGYWGQGTQVTVSS | low polyreactivity
10 | QVQLVESGGGLVQSGGSLRLSCAASGSTFSTYAMGWYRQAPGKERQLVAGITGSGGRTYYADSVKGRFTISRDNAKHTVYLQMNSMKPEDTGVYYCAASTRGYKWVGRDYDYWGQGTQVTVSS | high polyreactivity
11 | QVQLVESGGGLVQSGGSLRLSCAASGSTFVWYAMGWYRQAPGKERELVAAITDSGDDTYYADSVKGRFTISRDNAKNTVYLQMNSLKAEDNAVYYCAVVAWSVPPYDYWGQGTQVTVSS | low polyreactivity
12 | QVQLVESGGGLVQSGGSLRLSCAASGSTIPPNAMGWYRQAPGKERELVAGISYGGSTTYADSVKGRFTISRDNAKNTVYLQMNSLKPEDTAVYYCAADQPYWRDYDYWGQGTQVTVSS | low polyreactivity
13 | QVQLVESGGGLVQSGGSLRLSCGASGLIYGPNSMGWYRQAPAKERELVAAITKSGDSTYYADSVKGRFTISRDNAKNTVYLQMNSLKPEDTAVYYCAAEWYPYPWGYGYWGQGTQVTVSS | low polyreactivity
14 | QVQLVESGGGLVQSGVSLRLSCAASGITFYSIAIGWYRPATGKEMELVAANTRRGGSKLNADSVKGRFTNSRDNSKNTVYLQMNSLKPEDTAVYFCAADVPWWSYSDDYWGQGTKVTVSS | high polyreactivity
15 | QVQLVESGGGLVQSGVSLRLSCAASGSIFDPYAMGWYRPAPGKERELVAAITSGGSTYYADSVKGRFTISRDNAKNTVYLQMNSLKPEDTAVYYCAKDFDIYYSKYDYWGQGTQVTVSS | low polyreactivity
16 | QVQLVESGGGLVQSVGSLRLSCAASGFTFRWYAMGWYRQAPGKERELVAAITSRGGTTYYADSVKGRFTISRDNAKNTVYLQMNSLNPEDTAVYYCAARRAGRRGYYYWGQGTQVTVSS | high polyreactivity
17 | QVQLVESGGGLVQTGGSLRLSCAASGFIFGPYVMGWYRQAPRKERELFAAISSDGSTTYADSVKGRFTISRDNEKNTVYLQMNSLKPEDTAVYYFAAEDQQNGYDYWGQGTQVTVSS | low polyreactivity
18 | QVQLVESGGGLVQTGGSLRLSCAASGRIFNGNAMGWYRQAPGKERELVAAITKSGGNTYYADSVKGRFTISRDNAKNTVYLEMNSLKQEDTAVYYCNAYYSLGAWKGAYDYWGQGTQVTVSS | low polyreactivity
19 | QVQLVESGGGLVQTGGSLRLSCAASGSTFNQYDMGWYRQAPGKERELVAAINRDGSTYYADSVKGRFTISRDNAKNTVYLQMNSLNPEDTAVYYWNAVGWYTYFYGSRKYNSWGQGTEVTVSS | low polyreactivity
20 | QVQLVESGGGLVQVGGSLRLSCAASGITFSYYSMGWYRPAPGKERELVAAISQRGGSTYYADSVKGRFTISRDNAKNTVYLQMNSLKPEDTAVYYCAAAYRGANYGYGFDYWGQGTQVTVSS | high polyreactivity
21 | QVQLVESGGGLVQVGGSLRLSCAASGSIFAINAMGWYRQAPGKERELVAAIRRRDGNTYYADSVKGRFTISRDNAKNTVYLQMNSLKPEDTAVYYCNTYSRRTSVIAYRYNYWGQGTQVTVSS | high polyreactivity

Row | Sequence | polyreactivity (PSR sort gate)
22 | QVQLVESGGGLVQVGGSLRLSCAASGSIFVENAMGWYRQAPGKERELVAAITSGGSTNYADSVKGRFTISRDNAKNTVYLQMNSLKPEDTAVYYCNADENYGYYTHFGYWGQGTQVTVSS | low polyreactivity
23 | QVQLVESGGGSVQAGGSLRFSCADSGFTFRKNAMGWYRQAPGKERELVAAISVSGGRTYYADSVKGRFTISRDNAKNTFYLQMNSLKPEETAVYYCAARRYVLVHKDDYWGQGTQVTVSS | high polyreactivity
24 | QVQLVESGGGSVQAGGSLRLSCAASGRTFVRYAMGWYRQAPGKERELVAAITWSGGSTYYADSVKGRFTISRDNAKNTVYLQMNSLKPEDTAVFDCAAYPVQWGSLYDYWGQGTQVTVSS | high polyreactivity
25 | QVQLVESGGGVDQAGGSLRLSCAASGSIFDLNARGGYRQAPGTERELVASIRDSGGRTYYADSVKGRFTISRDNAKNTVYLQMNSLKPEDTALYYCAAKPRRPGRGYWGQGTQVTVSS | high polyreactivity
26 | QVQLVESGGGVVQAGGRLRLSCAASGFTFGSNDMGWYRQAPGKETELVAAIDGSGDTYYADSVKGRFTISRDNAKNTVDLQMNSLKPEDTAVYYCAADVIYWFSGEYDYWGQGTQVTVSS | low polyreactivity
27 | QVQLVESGGGVVQAGGSLRFSCAASGRTFVVNAMGWYREAPGKERELVAAITRRGGITYYADSVKGRFTISRDNAKNSVYLQMNSLTPEDTAVYYCAADRSYYPDTRTTYGYNYWGQGTQVTVSS | low polyreactivity
28 | QVQLVESGGGVVQAGGSLRISGAASGSIFPFNAMVWYRQAPGKERELVAAIRRSGGSTYYADSVQGRFTISRYNAKNTVDLQMNSLKPEATAVYYCATDPEWPLPAYYYWGQGTQVTVSS | low polyreactivity
29 | QVQLVESGGGVVQAGGSLRLSCAASGFIFFINDMGWDRQAPGKERELVAAISWSGGSTYYADSVKGRFTISRDNAKNTVYLQMNSLIPEDTAVYYCNTDVPTAQYDYWGQGTQVTVSS | low polyreactivity
30 | QVQLVESGGGVVQAGGSLRLSCAASGFIFGYYATGWYRQAPGKERELVDAFTRSGGSTRYADSVKGRFTISRDNAKNTVYLHMNSLKPEDSAVYYCNAYAPRQLYGYDYWGQGTQVTVSS | high polyreactivity
31 | QVQLVESGGGVVQAGGSLRLSCAASGFTFWRYAMGWSRQAPGKDRELVAVITWSGTRTYYADSVKGRFTLSRDTAKITVYVQMNSLNPDAPAVYYCAAYITDVAGRAYDYWGQGTQVTVSS | high polyreactivity
32 | QVQLVESGGGVVQAGGSLRLSCAASGITFSYYTMGWSRQAPGKERELVAAINWTGGDTYYADSVKGRFTISRDNAKNTVYLQMNSLNPEDTAVYYCNADYPYFYRFTAEYDYWGQGPQVTVSS | low polyreactivity
33 | QVQLVESGGGVVQAGGSLRLSCAASGRICVRYAMGWYRQAPGKERELVAAISTRGGSTYYADSVKGRFTISRDNAKYTVYFQMNSLKPEDTAVYYCAARGVGPQPGYQRFNYWGQGTQVTVSS | high polyreactivity
34 | QVQLVESGGGVVQAGGSLRLSCAASGRIFDIYAMGWYRQAPGKARELVAAITRGGSTYADSVKGRFTISRDNAKYTVYLQMNSLKPEVTAVYYCAASLYSYRSPYTFYYWGQGTQVTVSS | high polyreactivity
35 | QVQLVESGGGVVQAGGSLRLSCAASGRIFHRYTMGWYRQARGKERELVAVISGLGGSTYYADSVKGRFTISRDNAKNTVYLQMNSLKPEDTAVYYCNRVGKYWSSDDSWGQGTQVTVSS | high polyreactivity
36 | QVQLVESGGGVVQAGGSLRLSCAASGRIFRYTMGWYRQAPGKETELVADITRHGGSTYYADSVKGRFTISRDNAKNTVYLQMNSLKPEDTAVYYCAADHLSYRRRYEYWGQGTQVTVSS | low polyreactivity
37 | QVQLVESGGGVVQAGGSLRLSCAASGRIFVSYAMGWYRQAPGKERELVASISGRGGSTYYADSVKGRFTISRDNAKNTVELQMNSLKPEDTAVYYCNKVARTRRITTYDYWGQGTQVTVSS | high polyreactivity
38 | QVQLVESGGGVVQAGGSLRLSCAASGRIFVVYVMGWYRQAPGKEREFVAAITWGGGNTYYADSVKGRFTISRDNAKNTVYLQMNSLKPEDTAVYYCAAADGDDTTFRYDYWGQGTQVTVSS | low polyreactivity
39 | QVQLVESGGGVVQAGGSLRLSCAASGRISRGNAMGWYRPAPGKEREFVAAISWSGDGTYYADSVKGRFTISRDNAKYTVYLQMNSLNPEDTAVYYCNTAVKVERDYWGQGTQVTVSS | low polyreactivity
40 | QVQLVESGGGVVQAGGSLRLSCAASGRNFVYNAMGLYRQAPGKERELVAAIYSGGRTYYADSVKGRFTISRDNAKNTVYFKMYSLKPEDTAVYYCAARWYVLPTQTRPYYGYYYWGQGTQVTVSS | high polyreactivity
41 | QVQLVESGGGVVQAGGSLRLSCAASGRNFYSYAMGLYTQAPGKERELVAAISKRGTSTYYADSVKGRFTISRDNAKNTVYLQMNSLKPEDTAVYYCAAVHWRYQYSLRYDYWGQGTQVTVSS | high polyreactivity

— the nanobody polyreactivity screen of Harvey et al. (2022)
